The target in the series is T1, Pfu DNA polymerase (Pyrococcus furiosus, UniProt P61875 SEQ:1-775).
T1 sequence: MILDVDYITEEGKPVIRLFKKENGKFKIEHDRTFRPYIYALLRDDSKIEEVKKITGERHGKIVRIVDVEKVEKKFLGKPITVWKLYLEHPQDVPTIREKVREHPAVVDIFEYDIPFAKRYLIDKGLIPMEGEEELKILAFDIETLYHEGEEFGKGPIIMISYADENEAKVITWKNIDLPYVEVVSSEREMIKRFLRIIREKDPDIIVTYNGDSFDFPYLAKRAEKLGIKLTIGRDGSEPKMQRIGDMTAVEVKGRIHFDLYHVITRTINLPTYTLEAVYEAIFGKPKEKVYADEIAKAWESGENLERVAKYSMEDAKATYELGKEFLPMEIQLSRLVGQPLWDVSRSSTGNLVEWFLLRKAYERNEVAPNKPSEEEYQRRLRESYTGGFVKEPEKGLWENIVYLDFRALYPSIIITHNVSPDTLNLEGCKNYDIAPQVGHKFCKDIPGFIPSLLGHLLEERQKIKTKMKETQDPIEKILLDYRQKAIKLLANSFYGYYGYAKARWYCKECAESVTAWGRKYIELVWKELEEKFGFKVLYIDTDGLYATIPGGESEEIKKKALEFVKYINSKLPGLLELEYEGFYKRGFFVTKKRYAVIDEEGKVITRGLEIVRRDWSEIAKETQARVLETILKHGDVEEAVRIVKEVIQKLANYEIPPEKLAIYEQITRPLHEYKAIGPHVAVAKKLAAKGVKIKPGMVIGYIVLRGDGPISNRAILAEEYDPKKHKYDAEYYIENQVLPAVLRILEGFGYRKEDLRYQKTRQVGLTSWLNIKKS
As to the kind of experiment: 3'-5' exonuclease fluorescence assay, 65 C; high exonuclease activity. The note with it: tags: Stratagene (commercial); label: 5'-FAM, 3'-dabcyl; hairpin, 16 bp stem with 3' T:T* mismatch and 5' unpaired poly-T. The method, then:
The oligonucleotide was combined with buffer and the enzyme and incubated in a real time detection instrument, the DNA Engine Opticon System (MJ Research, Inc.). This instrument excites the FAM and detects any fluorescence if present. In the absence of 3′ to 5′ exonuclease activity, there is only background fluorescence because FAM is quenched by DAB. However if the enzyme does have 3′ to 5′ exonuclease activity, the T:T* mismatch is recognized and the 3′-T* is removed. The DAB is released and will no longer quench the FAM fluorescence. The Opticon System will detect the increase in fluorescence with increasing time (readings were taken every 10 sec at 65° C.). The rate of fluorescence increase directly reflects the amount of 3′ to 5′ exonuclease activity. […] The results (FIG. 3) of this analysis are discussed below.

For TTTTTTGAGGTGTGTCCTACACAGCGGAGTGTAGGACACACCTCT (structured_DNA, 3' terminal T is amino-link dT carrying dabcyl) [FAM/dabcyl hairpin exonuclease substrate], the binding result was “binds”.
